Measured values: US20060263855A1

Target: α-Hemoglobin (αHb) (UniProt P69905)
Assay: cell-based or functional assay

Chain of UniProt P69905 (P69905 2-142): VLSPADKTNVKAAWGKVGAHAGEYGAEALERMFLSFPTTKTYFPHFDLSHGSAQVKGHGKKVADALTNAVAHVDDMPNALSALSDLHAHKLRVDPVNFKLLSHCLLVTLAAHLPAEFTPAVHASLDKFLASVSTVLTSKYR

Acceleration of rate of αHb oxidation by AHSP (ratio of oxidation rate constants): 6.2
Substance: α-hemoglobin stabilizing protein (AHSP) (from UniProt Q9NZD4 1-102)
